How the values were obtained:
[1] = biological target: Aβ(1-40) monomer in 0.1% NH4OH (human); assay: dot blot with densitometry; Aβ form dotted on nitrocellulose in serial dilution, antibody 0.2 µg/ml; higher value = weaker recognition
[2] = biological target: Aβ(1-42) monomer in 0.1% NH4OH (human); assay: as above
[3] = biological target: Aβ(1-42) globulomer (human) (UniProt P05067); assay: as above
[4] = biological target: Aβ(1-40) monomer in 0.1% NaOH (human); assay: as above
[5] = biological target: Aβ(1-42) fibril (human) (UniProt P05067); assay: as above
[6] = biological target: Aβ(1-42) monomer in 0.1% NaOH (human); assay: as above
[7] = biological target: human platelet factor 4 (HPF4) in human plasma spiked with human PF4 (human) (UniProt P02776); assay: sandwich ELISA with HPF4-spiked human plasma; AUC of the reference anti-HPF4 antibody over AUC of this antibody
[8] = biological target: human platelet factor 4 (HPF4) in human plasma spiked with human PF4 (human) (UniProt P02776); assay: aligned sandwich ELISA with HPF4-spiked human plasma; AUC of the reference anti-HPF4 antibody over AUC of this antibody
[9] = biological target: platelet factor 4 (PF-4) in Cynomolgus monkey plasma (cynomolgus monkey (Macaca fascicularis)); assay: aligned sandwich ELISA with cynomolgus plasma; AUC of the reference anti-HPF4 antibody over AUC of this antibody
[10] = biological target: platelet factor 4 (PF-4) in Cynomolgus monkey plasma (cynomolgus monkey (Macaca fascicularis)); assay: sandwich ELISA with cynomolgus plasma; AUC of the reference anti-HPF4 antibody over AUC of this antibody

human platelet factor 4 (HPF4) in human plasma spiked with human PF4 (human), sequence (P02776 32-101): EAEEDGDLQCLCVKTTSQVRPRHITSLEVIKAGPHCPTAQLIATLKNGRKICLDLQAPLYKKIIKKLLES
platelet factor 4 (PF-4) in Cynomolgus monkey plasma (cynomolgus monkey (Macaca fascicularis)), sequence (chain, as listed by the source): as the sequence (P02776 32-101) above, with I64V counted along it
Aβ(1-42) fibril (human), sequence (P05067 672-713 limits assumed): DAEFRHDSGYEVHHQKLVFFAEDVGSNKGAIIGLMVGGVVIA
Aβ(1-42) globulomer (human), sequence (P05067 672-713 limits assumed): as above
Aβ(1-42) monomer in 0.1% NH4OH (human), sequence (peptide, as listed by the source): as the sequence (P05067 672-713 limits assumed) above
Aβ(1-42) monomer in 0.1% NaOH (human), sequence (peptide, as listed by the source): as the sequence (P05067 672-713 limits assumed) above
Aβ(1-40) monomer in 0.1% NaOH (human), sequence (peptide, as listed by the source): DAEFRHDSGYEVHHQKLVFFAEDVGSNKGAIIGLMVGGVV

Anti-Aβ monoclonal antibody clone 6E10 (Covance cat. no. SIG-39320)
dot blot relation of recognition of Aβ(20-42) globulomer to recognition of this Aβ form [1]: 3 | dot blot relation of recognition of Aβ(20-42) globulomer to recognition of this Aβ form [2]: 10 | dot blot relation of recognition of Aβ(20-42) globulomer to recognition of this Aβ form [3]: 0.09 | dot blot relation of recognition of Aβ(20-42) globulomer to recognition of this Aβ form [4]: 20 | dot blot relation of recognition of Aβ(20-42) globulomer to recognition of this Aβ form [5]: 29 | dot blot relation of recognition of Aβ(20-42) globulomer to recognition of this Aβ form [6]: 10

Anti-HPF4 monoclonal antibody (Abcam Cat. No. ab49735)
Ratio HPF4/aAβ antibody (PF4 discrimination factor) [7]: 1 | Ratio HPF4/aAβ antibody (PF4 discrimination factor) [8]: 1 | Ratio HPF4/aAβ antibody (PF4 discrimination factor) [9]: 1 | Ratio HPF4/aAβ antibody (PF4 discrimination factor) [10]: 1

Monoclonal antibody clone mIgG2a
Ratio HPF4/aAβ antibody (PF4 discrimination factor) [7]: 331 | Ratio HPF4/aAβ antibody (PF4 discrimination factor) [8]: 118 | Ratio HPF4/aAβ antibody (PF4 discrimination factor) [9]: 325 | Ratio HPF4/aAβ antibody (PF4 discrimination factor) [10]: 517

— patent US20150368299A1
